Like-named read-outs stand apart in the source and are kept apart here.

Test [1] concerns the target T1, PKC-ε (endogenous, human cell extracts) (human, UniProt Q02156 1-737).
T1 construct: Two bands on the blot, said to be alternate splicing variants; also called PKC-epsilon; PKC-ε Band 1
T1 sequence (looked up): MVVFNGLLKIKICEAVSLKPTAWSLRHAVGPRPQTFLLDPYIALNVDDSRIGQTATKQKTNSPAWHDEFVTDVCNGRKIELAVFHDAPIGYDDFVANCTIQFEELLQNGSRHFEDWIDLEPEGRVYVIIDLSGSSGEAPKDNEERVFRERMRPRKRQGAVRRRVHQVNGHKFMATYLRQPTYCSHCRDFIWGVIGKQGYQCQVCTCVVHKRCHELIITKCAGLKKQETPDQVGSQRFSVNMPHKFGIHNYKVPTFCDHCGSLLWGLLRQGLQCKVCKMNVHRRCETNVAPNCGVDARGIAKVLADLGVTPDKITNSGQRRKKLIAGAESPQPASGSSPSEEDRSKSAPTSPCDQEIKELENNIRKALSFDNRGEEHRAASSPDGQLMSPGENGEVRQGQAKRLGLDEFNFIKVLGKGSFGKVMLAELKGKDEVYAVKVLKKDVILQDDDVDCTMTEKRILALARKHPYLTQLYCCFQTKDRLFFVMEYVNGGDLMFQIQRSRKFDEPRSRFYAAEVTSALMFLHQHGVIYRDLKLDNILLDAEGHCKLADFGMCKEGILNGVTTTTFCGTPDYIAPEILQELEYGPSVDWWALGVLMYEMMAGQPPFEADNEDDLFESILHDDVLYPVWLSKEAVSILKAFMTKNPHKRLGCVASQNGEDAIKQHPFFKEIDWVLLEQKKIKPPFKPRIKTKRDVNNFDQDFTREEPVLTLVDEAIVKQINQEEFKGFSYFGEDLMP
As to the kind of experiment: Western-blot competition on cell extracts against the anti-PKC-ε primary antibody; band densitometry.

In test [2] the target is T2, PKC-ζ (endogenous, human cell extracts) (human, UniProt Q05513 1-592).
T2 construct: also called PKC-zeta
T2 sequence (looked up): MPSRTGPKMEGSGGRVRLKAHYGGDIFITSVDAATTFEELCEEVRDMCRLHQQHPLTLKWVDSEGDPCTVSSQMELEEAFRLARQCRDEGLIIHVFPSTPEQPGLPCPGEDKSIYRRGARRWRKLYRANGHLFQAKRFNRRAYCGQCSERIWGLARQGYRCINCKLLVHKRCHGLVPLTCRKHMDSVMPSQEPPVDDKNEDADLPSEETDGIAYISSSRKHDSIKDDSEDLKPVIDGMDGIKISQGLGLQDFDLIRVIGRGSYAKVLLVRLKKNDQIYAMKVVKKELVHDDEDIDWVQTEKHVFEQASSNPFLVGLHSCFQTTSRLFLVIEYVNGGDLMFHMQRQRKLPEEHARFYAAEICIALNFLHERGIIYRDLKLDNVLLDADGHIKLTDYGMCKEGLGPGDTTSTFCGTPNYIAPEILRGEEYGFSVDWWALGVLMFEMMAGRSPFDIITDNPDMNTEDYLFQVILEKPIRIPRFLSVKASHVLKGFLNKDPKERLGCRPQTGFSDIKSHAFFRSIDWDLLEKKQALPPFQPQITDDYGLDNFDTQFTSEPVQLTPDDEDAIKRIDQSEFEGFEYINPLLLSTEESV
As to the kind of experiment: Western-blot competition on cell extracts against the anti-PKC-ζ primary antibody; band densitometry. The method, then: (§1) Binding efficiency and specificity of the peptides PRE 2, 3, 4, 5, 6, 7, 8, 9, 10, 11, 12 and 13 (see Table 3) was also tested using cytoplasmic extracts from different cell lines expressing appropriate PKC isoforms as described for Example 1. Briefly, the protein cytoplasmic extracts were separated by electrophoresis and transferred onto nitrocellulose membranes by standard Western blotting procedures. The bands on the Western blots were detected with matching primary antibodies and alkaline phosphatase conjugated secondary antibody. The bands were then scanned and the relative density measurements obtained.
(§2) This procedure to assess the binding characteristics of the PREs is based on competition binding of the PRE with the primary anti-isoform PKC specific antibodies. The lower the measured band density, the greater the binding of the PRE to the PKC isoform. The PREs were added at 10 and 20 times (10×, 20×) the primary antibody concentration, according to classical competition between antigenic peptide and primary antibody. The following cell lines (obtained from the ATCC) were used: H661—NCI human lung carcinoma NSCLC; MDAMB231—human highly invasive breast cancer cell line from pleural effusion; LS180—human colon adenocarcinoma; LnCAP—human prostate adenocarcinoma; CCD16Lu—human lung fibroblasts; Du145—human prostate carcinoma brain metastasis, and T24—human bladder carcinoma.

In test [3] the target is T1, PKC-ε (endogenous, human cell extracts). The test can be described thus: Western-blot competition on cell extracts against the anti-PKC-ε primary antibody; band densitometry. The method, then: as §1, §2
This is another data set of the same source.

Test [4] addresses T3, PKC-ι (endogenous, human cell extracts) (human, UniProt P41743 2-596).
T3 construct: also called PKC-iota
T3 sequence (looked up): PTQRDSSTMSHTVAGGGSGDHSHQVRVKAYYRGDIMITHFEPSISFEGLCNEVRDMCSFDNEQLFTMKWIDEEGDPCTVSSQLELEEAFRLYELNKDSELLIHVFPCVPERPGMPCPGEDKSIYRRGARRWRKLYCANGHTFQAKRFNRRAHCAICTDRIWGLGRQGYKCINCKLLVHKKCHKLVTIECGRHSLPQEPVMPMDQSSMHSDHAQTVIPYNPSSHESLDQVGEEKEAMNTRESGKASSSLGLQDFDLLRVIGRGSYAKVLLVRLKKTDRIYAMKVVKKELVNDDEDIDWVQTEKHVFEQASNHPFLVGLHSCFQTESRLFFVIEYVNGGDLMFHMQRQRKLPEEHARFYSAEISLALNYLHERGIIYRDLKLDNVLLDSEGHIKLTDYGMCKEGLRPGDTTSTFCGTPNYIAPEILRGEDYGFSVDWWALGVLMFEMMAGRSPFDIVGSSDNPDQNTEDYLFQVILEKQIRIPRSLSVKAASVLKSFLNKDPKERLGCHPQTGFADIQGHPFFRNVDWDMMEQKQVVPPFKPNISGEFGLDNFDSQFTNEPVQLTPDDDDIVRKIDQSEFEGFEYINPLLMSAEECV
As to the kind of experiment: Western-blot competition on cell extracts against the anti-PKC-ι primary antibody; peptide at 10X and 20X the antibody concentration; band densitometry (lower band = peptide bound). How it is done:
as §1, §2

The next test has as its target T4, PKC-ζ (purified isoform) (Homo sapiens (Human), UniProt Q05513 1-592).
T4 construct: also called PKC-zeta; PKCzeta
T4 sequence: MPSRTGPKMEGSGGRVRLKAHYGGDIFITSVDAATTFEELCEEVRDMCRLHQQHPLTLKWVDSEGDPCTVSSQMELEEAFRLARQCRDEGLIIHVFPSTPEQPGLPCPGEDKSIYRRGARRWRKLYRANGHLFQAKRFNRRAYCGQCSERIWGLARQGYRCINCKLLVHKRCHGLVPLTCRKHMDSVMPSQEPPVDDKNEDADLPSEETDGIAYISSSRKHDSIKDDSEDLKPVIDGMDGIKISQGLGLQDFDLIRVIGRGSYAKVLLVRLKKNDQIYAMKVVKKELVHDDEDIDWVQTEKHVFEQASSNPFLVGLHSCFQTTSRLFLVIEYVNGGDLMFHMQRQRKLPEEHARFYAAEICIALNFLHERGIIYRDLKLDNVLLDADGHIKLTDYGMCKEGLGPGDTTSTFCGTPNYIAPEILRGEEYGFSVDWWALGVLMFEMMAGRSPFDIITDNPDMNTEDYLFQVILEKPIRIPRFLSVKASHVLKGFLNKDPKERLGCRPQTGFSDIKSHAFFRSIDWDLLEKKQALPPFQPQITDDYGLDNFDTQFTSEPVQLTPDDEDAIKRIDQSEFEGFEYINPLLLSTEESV
As to the kind of experiment: competitive binding assay on purified isoforms: PRE 4 at 20X against the fluorescent anti-PKC-zeta antibody.

Test [5] concerns the target T2, PKC-ζ (endogenous, human cell extracts). As to the kind of experiment: Western-blot competition on cell extracts against the anti-PKC-ζ primary antibody; band densitometry. The source holds these as a separate data set.

B1: PRE 12 (peptide)
peptide: Ac-KDAQNLI-NH2
notes: Synthetic peptide; also called peptide PRE 12; Ac-KDAQNLI-NH2
For B1, the binding result in test [1] is recorded as “no binding (tested: 20X the primary antibody concentration)”.

B2: PRE 13 (peptide)
peptide: Ac-RDAQNLI-NH2
notes: Synthetic peptide; also called peptide PRE 13; Ac-RDAQNLI-NH2
Consider B2, for which the binding result in test [2] and in test [3] was “no binding (tested: 20X the primary antibody concentration)” each time.

B3: PRE 6 (peptide)
peptide: Ac-KDANQLIGISI-NH2
notes: Synthetic peptide; also called peptide PRE 6
For B3, the binding result in test [2] is reported as “no binding (tested: 20X the primary antibody concentration)”.

B4: PRE 4 (peptide)
peptide: Ac-KDAQNLIGISI-NH2
notes: Synthetic peptide; also called peptide PRE 4
In the case of B4, the binding result in test [4] was “binds”; with PKC-ζ (purified isoform), “no binding (tested: 20X)”.

B5: PRE 11 (peptide)
peptide: Ac-RDAQNLIGISI-NH2
notes: Synthetic peptide; also called peptide PRE 11
Take B5: the binding result in test [5] is on record as “no binding (tested: 20X the primary antibody concentration)”.

B6: PRE 3 (peptide)
peptide: Ac-AKGIQEVKGGDAQNLIGISI-NH2
notes: Synthetic peptide; also called peptide PRE 3
Take B6: in test [4], the binding result is “binds”.

Source of the values: patent US20100041597A1 (published 2010).
